Here are results for 94 variants from the supplement of paper PMC10567573.

B1: CLPTM1 (parent)
chain: MNLHVYISEHEHFTDFNATSALFW
B2: INTS4 (parent)
chain: IRLVDDAFGKICHMVSDGSWVVRV
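Note: lentivirally expressed fusions sorted by FACS into six bins by GFP to DsRed ratio, PSI derived from sequencing read proportions per bin multiplied by bin number.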

Variants of B1 are the subject of the first data set. The data set can be described thus: protein stability index of a GFP-peptide fusion (GPS, HEK-293T) (PSI 1-6); higher = more stable. Particulars: c terminus: a fixed tail appended.
Regarding ENLHVYISEHEHFTDFNATSALFW [M1E], the protein stability index worked out at 1.33.

For the variant DNLHVYISEHEHFTDFNATSALFW [M1D], the protein stability index was determined as 1.72.

The variants in another data set derive from B2. The data set is described as above. The settings on record: c terminus: a fixed tail appended.
Take IRLVDDAFGKICHMVSDGSWVRRV [V22R]: the protein stability index was 3.28.

For the variant IRLVDDAFGKICHMVSDGSWVIRV [V22I], the protein stability index is 3.27.

For IRLVDDAFGKICHMVSDGSWVERV [V22E], the protein stability index turned out to be 2.56.

Take IRLVDDAFGKICHMVSDGSWVDRV [V22D]: the protein stability index was 3.6.

Consider IRLVDDAFGKICHMVSDGSWVTRV [V22T], for which the protein stability index worked out at 4.7.

As for IRLVDDAFGKICHMVSDGSWVYRV [V22Y], the protein stability index amounted to 4.15.

Consider IRLVDDAFGKICHMVSDGSWVHRV [V22H], for which the protein stability index worked out at 2.78.

With IRLVDDAFGKICHMVSDGSWVKRV [V22K], the protein stability index turned out to be 3.02.

Consider IRLVDDAFGKICHMVSDGSWVLRV [V22L], for which the protein stability index turned out to be 2.82.

In the case of IRLVDDAFGKICHMVSDGSWVFRV [V22F], the protein stability index turned out to be 3.53.

Consider IRLVDDAFGKICHMVSDGSWVCRV [V22C], for which the protein stability index worked out at 3.31.

Consider IRLVDDAFGKICHMVSDGSWVWRV [V22W], for which the protein stability index was 2.35.

For IRLVDDAFGKICHMVSDGSWVVRS [V24S], the protein stability index stood at 2.31.

For IRLVDDAFGKICHMVSDGSWVVRD [V24D], the protein stability index worked out at 1.47.

IRLVDDAFGKICHMVSDGSWVVRT [V24T]: the protein stability index turned out to be 4.

In the case of IRLVDDAFGKICHMVSDGSWVVRR [V24R], the protein stability index came out at 3.03.

IRLVDDAFGKICHMVSDGSWVVRK [V24K]: the protein stability index was 1.58.

Take IRLVDDAFGKICHMVSDGSWVVRI [V24I]: the protein stability index came out at 3.12.

Consider IRLVDDAFGKICHMVSDGSWVVRP [V24P], for which the protein stability index was determined as 3.21.

Take IRLVDDAFGKICHMVSDGSWVVRN [V24N]: the protein stability index was determined as 1.42.

With IRLVDDAFGKICHMVSDGSWVVRF [V24F], the protein stability index is 3.03.

Regarding IRLVDDAFGKICHMVSDGSWVVRW [V24W], the protein stability index was 1.57.

As for IRLVDDAFGKICHMVSDGSWVVRM [V24M], the protein stability index turned out to be 1.46.

Regarding IRLVDDAFGKICHMVSDGSWVVRY [V24Y], the protein stability index was determined as 3.37.

As for IRLVDDAFGKICHMVSDGSWVVRC [V24C], the protein stability index came out at 2.68.

With IRLVDDAFGKICHMVSDGSWVVRH [V24H], the protein stability index was determined as 2.79.

Consider IRLVDDAFGKICHMVSDGSWVVRQ [V24Q], for which the protein stability index is 2.04.

As to IRLVDDAFGKICHMVSDGSHVVRV [W20H], the protein stability index was 3.71.

For IRLVDDAFGKICHMVSDGSYVVRV [W20Y], the protein stability index was 2.87.

With IRLVDDAFGKICHMVSDGSDVVRV [W20D], the protein stability index worked out at 1.61.

Regarding IRLVDDAFGKICHMVSDGSFVVRV [W20F], the protein stability index worked out at 2.47.

With IRLVDDAFGKICHMVSDGSAVVRV [W20A], the protein stability index turned out to be 3.43.

With IRLVDDAFGKICHMVSDGSIVVRV [W20I], the protein stability index was found to be 2.89.

On to IRLVDDAFGKICHMVSDGSGVVRV [W20G], for which the protein stability index was found to be 1.7.

With IRLVDDAFGKICHMVSDGSLVVRV [W20L], the protein stability index turned out to be 2.83.

Turning to IRLVDDAFGKICHMVSDGSVVVRV [W20V], the protein stability index is 3.08.

With IRLVDDAFGKICHMVSDGSKVVRV [W20K], the protein stability index was found to be 1.36.

For the variant IRLVDDAFGKICHMVSDGSEVVRV [W20E], the protein stability index was 1.64.

Regarding IRLVDDAFGKICHMVSDGSQVVRV [W20Q], the protein stability index turned out to be 3.26.

With IRLVDDAFGKICHMVSDGSRVVRV [W20R], the protein stability index turned out to be 2.79.

As for IRLVDDAFGKICHMVSWGSWVVRV [D17W], the protein stability index stood at 2.22.

IRLVDDAFGKICHMVSGGSWVVRV [D17G]: the protein stability index came to 2.05.

As for IRLVDDAFGKICHMVSEGSWVVRV [D17E], the protein stability index was found to be 2.35.

For the variant IRLVDDAFGKICHMVSHGSWVVRV [D17H], the protein stability index amounted to 3.91.

Turning to IRLVDDAFGKICHMVSLGSWVVRV [D17L], the protein stability index was 2.79.

IRLVDDAFGKICHMVSCGSWVVRV [D17C]: the protein stability index stood at 2.15.

Consider IRLVDDAFGKICHMVSMGSWVVRV [D17M], for which the protein stability index amounted to 1.92.

IRLVDDAFGKICHMVSKGSWVVRV [D17K]: the protein stability index was 1.48.

With IRLVDDAFGKICHMVSQGSWVVRV [D17Q], the protein stability index was 3.32.

Turning to IRLVDDAFGKICHMVSVGSWVVRV [D17V], the protein stability index is 3.15.

IRLVDDAFGKICHMVSRGSWVVRV [D17R]: the protein stability index was determined as 2.02.

For IRLVDDAFGKICHMVSPGSWVVRV [D17P], the protein stability index came to 2.05.

Turning to IRLVDDAFGKICHMVSSGSWVVRV [D17S], the protein stability index amounted to 3.98.

For the variant IRLVDDAFGKICHMVSAGSWVVRV [D17A], the protein stability index came out at 3.62.

Regarding IRLVDDAFGKICHMVSNGSWVVRV [D17N], the protein stability index came to 2.41.

Turning to IRLVDDAFGKICHMVSFGSWVVRV [D17F], the protein stability index stood at 1.24.

Consider IRLVDDAFGKMCHMVSDGSWVVRV [I11M], for which the protein stability index worked out at 2.41.

Consider IRLVDDAFGKQCHMVSDGSWVVRV [I11Q], for which the protein stability index worked out at 2.63.

With IRLVDDAFGKHCHMVSDGSWVVRV [I11H], the protein stability index was found to be 3.47.

IRLVDDAFGKSCHMVSDGSWVVRV [I11S]: the protein stability index stood at 2.87.

Take IRLVDDAFGKYCHMVSDGSWVVRV [I11Y]: the protein stability index was 3.31.

Turning to IRLVDDAFGKVCHMVSDGSWVVRV [I11V], the protein stability index was 3.14.

Turning to IRLVDDAFGKNCHMVSDGSWVVRV [I11N], the protein stability index is 2.3.

Consider IRLVDDAFGKCCHMVSDGSWVVRV [I11C], for which the protein stability index worked out at 2.87.

As for IRLVDDAFGKICSMVSDGSWVVRV [H13S], the protein stability index came to 1.3.

For the variant IRLVDDAFGKICYMVSDGSWVVRV [H13Y], the protein stability index was 2.38.

IRLVDDAFGKICIMVSDGSWVVRV [H13I]: the protein stability index came to 3.17.

On to IRLVDDAFGKICPMVSDGSWVVRV [H13P], for which the protein stability index is 2.63.

Take IRLVDDAFGKICMMVSDGSWVVRV [H13M]: the protein stability index turned out to be 3.09.

Take IRLVDDAFGKICDMVSDGSWVVRV [H13D]: the protein stability index turned out to be 3.12.

Regarding IRLVDDAFGKICGMVSDGSWVVRV [H13G], the protein stability index was 2.97.

As for IRLVDDAFGKICAMVSDGSWVVRV [H13A], the protein stability index turned out to be 3.2.

As to IRLVDDAFGKICKMVSDGSWVVRV [H13K], the protein stability index turned out to be 3.46.

On to IRLVDDAFYKICHMVSDGSWVVRV [G9Y], for which the protein stability index stood at 3.11.

As to IRLVDDAFVKICHMVSDGSWVVRV [G9V], the protein stability index worked out at 2.6.

On to IRLVDDAFGKICHMVSDGSWVVSV [R23S], for which the protein stability index was 2.39.

On to IRLVDDAFGKICHMVSDGSWVVCV [R23C], for which the protein stability index turned out to be 3.87.

Consider IRLVDDAFGKICHMVSDGSWVVNV [R23N], for which the protein stability index stood at 2.02.

For the variant IRLVDDAFGKICHMVSDGSWVVTV [R23T], the protein stability index was 1.88.

In the case of IRLVDDAFGKICHMVSDGSWVVIV [R23I], the protein stability index came out at 3.28.

As to IRLVDDAFGKICHMVSDGSWVVHV [R23H], the protein stability index worked out at 2.94.

As to IRLVDDAFGKICHMVSDGSWVVAV [R23A], the protein stability index worked out at 4.14.

Take IRLVDDAFGKICHMVSDGSWVVGV [R23G]: the protein stability index is 2.32.

Turning to IRLVDDAFGKICHMVSDGSWVVMV [R23M], the protein stability index was 3.4.

On to IRLVDDAFGKICHMVSDGSWVVDV [R23D], for which the protein stability index is 2.15.

As to IRLVDDAFGKICHMVSDGSWVVFV [R23F], the protein stability index came to 3.

For the variant IRLVDDAFGKICHMVSDGSWVVLV [R23L], the protein stability index was 4.2.

Take IRLVDDAFGKICHMVSDGSWVVEV [R23E]: the protein stability index was determined as 2.13.

For the variant IRLVDDAFGKICHMVSDGSWCVRV [V21C], the protein stability index came to 3.07.

In the case of IRLVDDAFGKICHMVSDGSWGVRV [V21G], the protein stability index was 1.89.

On to IRLVDDAFGKICHMVSDGSWLVRV [V21L], for which the protein stability index came to 2.25.

For IRLVDDAFGKICHMVSDGSWPVRV [V21P], the protein stability index turned out to be 1.98.
